T1: CD82 polypeptide (human) (human)
T1 sequence (P27701 whole entry, looked up): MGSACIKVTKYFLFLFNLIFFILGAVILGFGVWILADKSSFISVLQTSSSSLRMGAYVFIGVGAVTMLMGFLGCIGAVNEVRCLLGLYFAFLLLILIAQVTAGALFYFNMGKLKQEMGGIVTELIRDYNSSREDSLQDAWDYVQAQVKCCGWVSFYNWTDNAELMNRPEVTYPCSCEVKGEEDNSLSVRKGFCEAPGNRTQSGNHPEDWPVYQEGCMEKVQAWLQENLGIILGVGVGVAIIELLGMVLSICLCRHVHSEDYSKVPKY

B1: Annexin A1 (human) (protein)
chain: AMVSEFLKQAWFIENEEQEYVQTVKSSKGGPGSAVSPYPTFNPSSDVAALHKAIMVKGVDEATIIDILTKRNNAQRQQIKAAYLQETGKPLDETLKKALTGHLEEVVLALLKTPAQFDADELRAAMKGLGTDEDTLIEILASRTNKEIRDINRVYREELKRDLAKDITSDTSGDFRNALLSLAKGDRSEDFGVNEDLADSDARALYEAGERRKGTDVNVFNTILTTRSYPQLRRVFQKYTKYSKHDMNKVLDLELKGDIEKCLTAIVKCATSKPAFFAEKLHQAMKGVGTRHKALIRIMVSRSEIDMNDIKAFYQKMYGISLCQAILDETKGDYEKILVALCGGN
B2: PRDX2_HUMAN (enzyme)
chain: ASGNARIGKPAPDFKATAVVDGAFKEVKLSDYKGKYVVLFFYPLDFTFVCPTEIIAFSNRAEDFRKLGCEVLGVSVDSQFTHLAWINTPRKEGGLGPLNIPLLADVTRRLSEDYGVLKTDEGIAYRGLFIIDGKGVLRQITVNDLPVGRSVDEALRLVQAFQYTDEHGEVCPAGWKPGSDTIKPNVDDSKEYFSKHN
B3: Eh domain containing 1 (protein)
chain: MFSWVSKDARRKKEPELFQTVAEGLRQLYAQKLLPLEEHYRFHEFHSPALEDADFDNKPMVLLVGQYSTGKTTFIRHLIEQDFPGMRIGPEPTTDSFIAVMHGPTEGVVPGNALVVDPRRPFRKLNAFGNAFLNRFMCAQLPNPVLDSISIIDTPGILSGEKQRISRGYDFAAVLEWFAERVDRIILLFDAHKLDISDEFSEVIKALKNHEDKIRVVLNKADQIETQQLMRVYGALMWSLGKIINTPEVVRVYIGSFWSHPLLIPDNRKLFEAEEQDLFKDIQSLPRNAALRKLNDLIKRARLAKVHAYIISSLKKEMPNVFGKESKKKELVNNLGEIYQKIEREHQISPGDFPSLRKMQELLQTQDFSKFQALKPKLLDTVDDMLANDIARLMVMVRQEESLMPSQVVKGGAFDGTMNGPFGHGYGEGAGEGIDDVEWVVGKDKPTYDEIFYTLSPVNGKITGANAKKEMVKSKLPNTVLGKIWKLADVDKDGLLDDEEFALANHLIKVKLEGHELPADLPPHLVPPSKRRHE
B4: TGF beta receptor 1 (receptor)
chain: LQCFCHLCTKDNFTCVTDGLCFVSVTETTDKVIHNSMCIAEIDLIPRDRPFVCAPSSKTGSVTTTYCCNQDHCNKIELPTTVKSSPGLGPVELAAVIAGPVCFVCISLMLMVYICHNRTVIHHRVPNEEDPSLDRPFISEGTTLKDLIYDMTTSGSGSGLPLLVQRTIARTIVLQESIGKGRFGEVWRGKWRGEEVAVKIFSSREERSWFREAEIYQTVMLRHENILGFIAADNKDNGTWTQLWLVSDYHEHGSLFDYLNRYTVTVEGMIKLALSTASGLAHLHMEIVGTQGKPAIAHRDLKSKNILVKKNGTCCIADLGLAVRHDSATDTIDIAPNHRVGTKRYMAPEVLDDSINMKHFESFKRADIYAMGLVFWEIARRCSIGGIHEDYQLPYYDLVPSDPSVEEMRKVVCEQKLRPNIPNRWQSCEALRVMAKIMRECWYANGAARLTALRIKKTLSQLSQQEGIKM
B5: EHD2_HUMAN (protein)
chain: MFSWLKRGGARGQQPEAIRTVTSALKELYRTKLLPLEEHYRFGAFHSPALEDADFDGKPMVLVAGQYSTGKTSFIQYLLEQEVPGSRVGPEPTTDCFVAVMHGDTEGTVPGNALVVDPDKPFRKLNPFGNTFLNRFMCAQLPNQVLESISIIDTPGILSGAKQRVSRGYDFPAVLRWFAERVDLIILLFDAHKLEISDEFSEAIGALRGHEDKIRVVLNKADMVETQQLMRVYGALMWALGKVVGTPEVLRVYIGSFWSQPLLVPDNRRLFELEEQDLFRDIQGLPRHAALRKLNDLVKRARLVRVHAYIISYLKKEMPSVFGKENKKKQLILKLPVIFAKIQLEHHISPGDFPDCQKMQELLMAHDFTKFHSLKPKLLEALDEMLTHDIAKLMPLLRQEELESTEVGVQGGAFEGTHMGPFVERGPDEAMEDGEEGSDDEAEWVVTKDKSKYDEIFYNLAPADGKLSGSKAKTWMVGTKLPNSVLGRIWKLSDVDRDGMLDDEEFALASHLIEAKLEGHGLPANLPRRLVPPSKRRHKGSAE
B6: EHD4_HUMAN (protein)
chain: MFSWMGRQAGGRERAGGADAVQTVTGGLRSLYLRKVLPLEEAYRFHEFHSPALEDADFENKPMILLVGQYSTGKTTFIRYLLEQDFPGMRIGPEPTTDSFIAVMYGETEGSTPGNALVVDPKKPFRKLSRFGNAFLNRFMCSQLPNQVLKSISVIDSPGILSGEKQRISRGYDFCQVLQWFAERVDRIILLFDAHKLDISDEFSEAIKAFRGQDDKIRVVLNKADQVDTQQLMRVYGALMWSLGKVINTPEVLRVYIGSFWAQPLQNTDNRRLFEAEAQDLFRDIQSLPQKAAVRKLNDLIKRARLAKVHAYIISYLKKEMPSVFGKENKKRELISRLPEIYIQLQREYQISAGDFPEVKAMQEQLENYDFTKFHSLKPKLIEAVDNMLSNKISPLMNLISQEETSTPTQLVQGGAFDGTTEGPFNQGYGEGAKEGADEEEWVVAKDKPVYDELFYTLSPINGKISGVNAKKEMVTSKLPNSVLGKIWKLADCDCDGMLDEEEFALAKHLIKIKLDGYELPSSLPPHLVPPSHRKSLPKAD

Total and Unique data for six molecules are collected here from patent US20220119489A1, “COMPOSITIONS AND METHODS FOR TREATING MUSCULAR DYSTROPHY AND RELATED DISORDERS” (CHILDREN'S MEDICAL CENTER CORPORATION, priority 2019, published 2022).

The test has as its target T1, CD82 polypeptide (human) (human). The test is described as follows: IP with anti CD82 antibodies, human myotubes, mass spectrometry.
For B1, the Total came out at 3 and the Unique was 3.

For the molecule B2, the Total came out at 3 and the Unique was found to be 3.

The molecule B3 gave a Total of 3 and a Unique of 3.

For the molecule B4, the Total is 3 and the Unique came out at 3.

The molecule B5 registered a Total of 3 and a Unique of 3.

B6 came in with a Total of 3 and a Unique of 3.
